Laboratory results from patent publication US20230227838A1, “ENHANCED CELL SURVIVAL AGAINST BIOTIC AND ABIOTIC STRESSES THROUGH SALICYLICK ACID-INDUCED NPR1 CONDENSATES” (priority 2020, published 2023).

These binders were tested against sim3-GFP (Arabidopsis thaliana) (UniProt P93002) (assay: sim3-GFP IP, LC-MS/MS).
Sequence of sim3-GFP (Arabidopsis thaliana) (P93002 other isoform, or with tags, fused parts or gaps): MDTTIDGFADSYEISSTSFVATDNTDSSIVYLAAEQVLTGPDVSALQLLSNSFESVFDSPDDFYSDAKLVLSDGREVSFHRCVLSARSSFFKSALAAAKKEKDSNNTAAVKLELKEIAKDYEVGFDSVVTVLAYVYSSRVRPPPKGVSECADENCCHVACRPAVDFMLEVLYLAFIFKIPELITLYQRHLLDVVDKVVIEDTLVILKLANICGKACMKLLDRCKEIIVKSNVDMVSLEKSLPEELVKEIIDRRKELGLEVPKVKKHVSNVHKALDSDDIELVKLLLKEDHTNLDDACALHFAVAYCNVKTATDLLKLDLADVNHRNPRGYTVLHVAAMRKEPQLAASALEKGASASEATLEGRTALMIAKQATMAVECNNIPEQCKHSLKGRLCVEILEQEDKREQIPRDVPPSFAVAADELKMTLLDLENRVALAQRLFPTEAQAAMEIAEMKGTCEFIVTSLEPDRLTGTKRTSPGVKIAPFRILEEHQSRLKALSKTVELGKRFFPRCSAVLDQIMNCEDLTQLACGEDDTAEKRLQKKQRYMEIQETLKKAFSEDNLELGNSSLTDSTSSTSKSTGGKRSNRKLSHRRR

Binder	Normalized Fold Change: SA vs Mock
G6PD6, glucose-6-phosphate dehydrogenase 6 (protein, UniProt Q9FJI5 1-515, looked up) Glucose-6-phosphate 1-dehydrogenase 6, cytoplasmic: MGSGQWHVEKRSTFRNDSFVREYGIVPETGCLSIIVLGASGDLAKKKTFPALFNLYRQGFLNPDEVHIFGYARTKISDEELRDRIRGYLVDEKNAEQAEALSKFLQLIKYVSGPYDAEEGFQRLDKAISEHEISKNSTEGSSRRLFYLALPPSVYPSVCKMIKTCCMNKSDLGGWTRIVVEKPFGKDLESAEQLSSQIGELFDESQIYRIDHYLGKELVQNMLVLRFANRFFLPLWNRDNIENVQIVFREDFGTEGRGGYFDEYGIIRDIIQNHLLQVLCLVAMEKPISLKPEHIRDEKVKVLQSVVPISDDEVVLGQYEGYRDDDTVPNDSNTPTFATTILRIHNERWEGVPFILKAGKALNSRKAEIRIQFKDVPGDIFRCQKQGRNEFVIRLQPSEAMYMKLTVKQPGLDMNTVQSELDLSYGQRYQGVAIPEAYERLILDTIKGDQQHFVRRDELKVAWEIFTPLLHRIDKGEVKSIPYKPGSRGPKEADQLLEKAGYLQTHGYIWIPPTL	4.1 fold
UGT85A1, UDP-Glycosyltransferase superfamily protein (protein, UniProt Q9SK82 1-489, looked up) UDP-glycosyltransferase 85A1: MGSQIIHNSQKPHVVCVPYPAQGHINPMMRVAKLLHARGFYVTFVNTVYNHNRFLRSRGSNALDGLPSFRFESIADGLPETDMDATQDITALCESTMKNCLAPFRELLQRINAGDNVPPVSCIVSDGCMSFTLDVAEELGVPEVLFWTTSGCAFLAYLHFYLFIEKGLCPLKDESYLTKEYLEDTVIDFIPTMKNVKLKDIPSFIRTTNPDDVMISFALRETERAKRASAIILNTFDDLEHDVVHAMQSILPPVYSVGPLHLLANREIEEGSEIGMMSSNLWKEEMECLDWLDTKTQNSVIYINFGSITVLSVKQLVEFAWGLAGSGKEFLWVIRPDLVAGEEAMVPPDFLMETKDRSMLASWCPQEKVLSHPAIGGFLTHCGWNSILESLSCGVPMVCWPFFADQQMNCKFCCDEWDVGIEIGGDVKREEVEAVVRELMDGEKGKKMREKAVEWQRLAEKATEHKLGSSVMNFETVVSKFLLGQKSQD	4.86 fold
TCH4, XTH22, Xyloglucan endotransglucosylase/hydrolase family protein (protein, UniProt Q38857 22-284, looked up) Xyloglucan endotransglucosylase/hydrolase protein 22: NFQRDVEITWGDGRGQIKNNGELLTLSLDKSSGSGFQSKNEYLFGKVSMQMKLVPGNSAGTVTTLYLKSPGTTWDEIDFEFLGNSSGEPYTLHTNVYTQGKGDKEQQFKLWFDPTANFHTYTILWNPQRIIFTVDGTPIREFKNMESLGTLFPKNKPMRMYSSLWNADDWATRGGLVKTDWSKAPFTASYRGFQQEACVWSNGKSSCPNASKQGTTTGSWLSQELDSTAQQRMRWVQRNYMIYNYCTDAKRFPQGLPKECLAA	102 fold
ISU1, SufE/NifU family protein (protein, UniProt O49627 51-167, looked up) Iron-sulfur cluster assembly protein 1: PNVGTGLVGAPACGDVMKLQIKVDEKTGQIVDARFKTFGCGSAIASSSVATEWVKGKAMEDVLTIKNTEIAKHLSLPPVKLHCSMLAEDAIKAAVKDYKEKRVKTNGAAAAGETTQA	3.44 fold
UBP2, ubiquitin-specific protease 2 (protein, UniProt Q8W4N3 1-961, looked up) Ubiquitin carboxyl-terminal hydrolase 2: MGKKAKKKARAPTKEIQTMEISKKVSEEPPSQAGEIAEGDVKAVKETQACVHFDKALNLEKVLDKIKSSRQIKCAECNEGVYGKRGTKAKGSKGKKDFSSSDPKSNNKAIWLCLECGCYVCGGVGLPNGPQSHVLRHSRVTRHRLVIQWENPQLRWCFPCQLLLPVEKEDNGEKKDVLSEVVKLIKGRSLNNLASSDIEDQCSGSGSITSDIKLEGAVTSDIEARDGYVVRGLVNLGNTCFFNSIMQNLLSLDRLRDHFLKENGSGVGGPLASSLRKLFTETKPEAGLKSVINPRAFFGSFCSKAPQFRGYDQHDSHELLRCLLDSLSTEESALRKKRGVSDNDEKSTTLIESVFGGETSSIVSCMECGHSSKVYEPFLDLSLPVPFKKSPPKKPQPVSRAKKAKLPPKRVPKNVSKVSKVSKVLPGMVLSELNSSGKSMAVTADSDTSCSSLAPLDNGPVLETPSVLTLDNNQASESASQSDTGFDGSWLDFIGPETSGDETNLDMQEDGIDNVITAEVNQIVPSPNIVANSSVSSGDQTLEGNTERLMQDYEEIAKAEANLDEKDVQAMQSDECPATSGISAEFSQASCIGCDPGIGESSSSVNPWDEEELPLVVADSQILYMPYKEISCNDKSVEGECEASSSFVTGDHEPQNSDFVDFGGLFDEPETTEGPVFGPPSKAEASGVGFMAFSSESDPEEIDDSDLPVSVERCLGHFTKHEILSDDNAWNCENCSKNLKLQRLREKRKSNEDESRSSNTSNGWVKENEDEGFGETEILAVKQDPNDTSCVKDHSSDGRKAARIHSADESESKGTQDEDEDSEKVITVKRDATKKVLINKAPPVLTIHLKRFSQDLRGRLSKLNGHVAFKEVIDLRQYMDSRCSGEDPPVYRLAGLVEHSGTMRGGHYVAYVRGGQRVKETDSSSTAWYNVSDAYVRQVSLEKVLHSEAYILFYERIFSQE	2.31 fold
LON2, lon protease 2 (protein, UniProt O64948 1-888, looked up) Lon protease homolog 2, peroxisomal: MAETVELPSRLAILPFRNKVLLPGAIIRIRCTSHSSVTLVEQELWQKEEKGLIGILPVRDDAEGSSIGTMINPGAGSDSGERSLKFLVGTTDAQKSDAKDQQDLQWHTRGVAARALHLSRGVEKPSGRVTYVVVLEGLSRFNVQELGKRGPYSVARITSLEMTKAELEQVKQDPDFVALSRQFKTTAMELVSVLEQKQKTGGRTKVLLETVPIHKLADIFVASFEMSFEEQLSMLDSVDLKVRLSKATELVDRHLQSIRVAEKITQKVEGQLSKSQKEYLLRQQMRAIKEELGDNDDDEDDVAALERKMQAAGMPSNIWKHAQRELRRLKKMQPQQPGYNSSRVYLELLADLPWDKASEEHELDLKAAKERLDSDHYGLAKVKQRIIEYLAVRKLKPDARGPVLCFVGPPGVGKTSLASSIAAALGRKFVRLSLGGVKDEADIRGHRRTYIGSMPGRLIDGLKRVGVCNPVMLLDEIDKTGSDVRGDPASALLEVLDPEQNKSFNDHYLNVPYDLSKVVFVATANRVQPIPPPLLDRMELIELPGYTQEEKLKIAMRHLIPRVLDQHGLSSEFLKIPEAMVKNIIQRYTREAGVRSLERNLAALARAAAVMVAEHEQSLPLSKDVQKLTSPLLNGRMAEGGEVEMEVIPMGVNDHEIGGTFQSPSALVVDETMLEKILGPPRFDDSEAADRVASAGVSVGLVWTTFGGEVQFVEATSMVGKGEMHLTGQLGDVIKESAQLALTWVRARASDFKLALAGDMNVLDGRDIHIHFPAGAVPKDGPSAGVTLVTALVSLFSQKRVRADTAMTGEMTLRGLVLPVGGIKDKILAAHRYGIKRVILPQRNSKDLVEVPAAVLSSLEVILAKRMEDVLENAFEGGCPWRNNYSKL	2.47 fold
UGT74F2, UDP-glucosyltransferase 74F2 (protein, UniProt O22822 1-449, looked up) UDP-glycosyltransferase 74F2: MEHKRGHVLAVPYPTQGHITPFRQFCKRLHFKGLKTTLALTTFVFNSINPDLSGPISIATISDGYDHGGFETADSIDDYLKDFKTSGSKTIADIIQKHQTSDNPITCIVYDAFLPWALDVAREFGLVATPFFTQPCAVNYVYYLSYINNGSLQLPIEELPFLELQDLPSFFSVSGSYPAYFEMVLQQFINFEKADFVLVNSFQELELHENELWSKACPVLTIGPTIPSIYLDQRIKSDTGYDLNLFESKDDSFCINWLDTRPQGSVVYVAFGSMAQLTNVQMEELASAVSNFSFLWVVRSSEEEKLPSGFLETVNKEKSLVLKWSPQLQVLSNKAIGCFLTHCGWNSTMEALTFGVPMVAMPQWTDQPMNAKYIQDVWKAGVRVKTEKESGIAKREEIEFSIKEVMEGERSKEMKKNVKKWRDLAVKSLNEGGSTDTNIDTFVSRVQSK	8.99 fold
ADF6 (protein, UniProt Q9ZSK2 1-146, looked up) Actin-depolymerizing factor 6: MSFRGLSRPNAISGMGVADESKTTFLELQRKKTHRYVVFKIDESKKEVVVEKTGNPTESYDDFLASLPDNDCRYAVYDFDFVTSENCQKSKIFFFAWSPSTSGIRAKVLYSTSKDQLSRELQGIHYEIQATDPTEVDLEVLRERAN	2.26 fold
NSP5, nitrile specifier protein 5 (protein, UniProt Q93XW5 1-326, looked up) Thiohydroximate-O-sulfate sulfur/sulfate-lyase (nitrile-forming) NSP5: MCPVENKWLKVGQKGAGPGARSSHAMTVVGNKVYCFGGELKPTIHIDNDLYVFDLETQEWSIAPATGEAPFPCFGVSMVTIGSTIYVYGGRDDKRRYNGLHSYDTETNEWKLLAPVEEGLPGRSYHSMAGDDRKVYVFGGVTAKGRVNTLHAYDVVDQKWVEYPAAGEACKGRGAPGLVVVEGRIWVLFGFDGNELGDIHCFDLASEQWKAVETTGDVPAARSVFPAVSYGKYIVIYGGEEEPHELMHMGAGKMSGEVYQLDTETLVWERIVCGNEEEKPSQRGWCAFTKAVKDGEEGLLVHGGNSPTNERLDDLVFWGFSHLNVN	5240 fold
ARD3, acireductone dioxygenase 3 (protein, UniProt Q8W108 1-199, looked up) Acireductone dioxygenase 3: MGEVVKDGREEVIQAWYMDDSEEDQRLPHHKDPKEFLSLDKLAELGVLSWRLDADNYETDEDLKKIRESRGYSYMDFCEVCPEKLPNYEVKVKSFFEEHLHTDEEIRYCVAGSGYFDVRDRNEAWIRVWVKKGGMIVLPAGIYHRFTVDSDNYIKAMRLFVGEPVWTPYNRPHDHLPARKEYIDNFVKVNEGGVIDASA	8.57 fold
RPP5, Disease resistance protein (TIR-NBS-LRR class) (protein, UniProt F4JNB7 1-1449, looked up) Disease resistance protein RPP5: MAASSSSGRRRYDVFPSFSGVDVRKTFLSHLIEALDGKSINTFIDHGIERSRTIAPELISAIREARISIVIFSKNYASSTWCLNELVEIHKCFNDLGQMVIPVFYDVDPSEVRKQTGEFGKVFEKTCEVSKDKQPGDQKQRWVQALTDIANIAGEDLLNGPNEAHMVEKISNDVSNKLITRSKCFDDFVGIEAHIEAIKSVLCLESKEARMVGIWGQSGIGKSTIGRALFSQLSIQFPLRAFLTYKSTSGSDVSGMKLSWEKELLSEILGQKDIKIEHFGVVEQRLKHKKVLILLDDVDNLEFLKTLVGKAEWFGSGSRIIVITQDRQFLKAHDIDLVYEVKLPSQGLALTMLCRSAFGKDSPPDDFKELAFEVAKLAGHLPLGLNVLGSSLRRRGKKEWMEMMPRLRNGLNGDIMKTLRVSYDRLHQKDQDMFLCIACLFNGFEVSYVKDLLEDNVGLTMLSEKSLIRITPDGHIEMHNLLEKLGREIDRAKSKGNPGKRQFLTNFEDIHEVVTEKTGTETLLGIRLPFEEYFSTRPLLIDKESFKGMRNLQYLKIGDWSDGGQPQSLVYLPLKLRLLDWDDCPLKSLPSTFKAEYLVNLIMKYSKLEKLWEGTLPLGSLKKMNLLCSKNLKEIPDLSNARNLEELDLEGCESLVTLPSSIQNAIKLRKLHCSGVILIDLKSLEGMCNLEYLSVDCSRVEGTQGIVYFPSKLRLLLWNNCPLKRLHSNFKVEYLVKLRMENSDLEKLWDGTQPLGRLKQMFLRGSKYLKEIPDLSLAINLEEVDICKCESLVTFPSSMQNAIKLIYLDISDCKKLESFPTDLNLESLEYLNLTGCPNLRNFPAIKMGCSDVDFPEGRNEIVVEDCFWNKNLPAGLDYLDCLMRCMPCEFRPEYLVFLNVRCYKHEKLWEGIQSLGSLEEMDLSESENLTEIPDLSKATNLKHLYLNNCKSLVTLPSTIGNLQKLVRLEMKECTGLEVLPTDVNLSSLETLDLSGCSSLRTFPLISKSIKWLYLENTAIEEILDLSKATKLESLILNNCKSLVTLPSTIGNLQNLRRLYMKRCTGLEVLPTDVNLSSLGILDLSGCSSLRTFPLISTNIVWLYLENTAIGEVPCCIEDFTRLRVLLMYCCQRLKNISPNIFRLRSLMFADFTDCRGVIKALSDATVVATMEDSVSCVPLSENIEYTCERFWGELYGDGDWDLGTEYFSFRNCFKLDRDARELILRSCFKPVALPGGEIPKYFTYRAYGDSLTVTLPRSSLSQSFLRFKACLVVDPLSEGKGFYRYLEVNFGFNGKQYQKSFLEDEELEFCKTDHLFFCSFKFESEMTFNDVEFKFCCSNRIKECGVRLMYVSQETEYNQQTTRSKKRMRMTSGTSEEYINLAGDQIVADTGLAALNMELSLGEGEASSSTSLEGEALSVDYMITKEQDEDIPFLDPVSDGTWRSFYSAE	3.79 fold
